This note sets out measurements from patent US7063950.

The target of test [1] is human neuronal calcium channel subunits α1B-1α2b (human).
For test [2] the target is unchanged. This is another data set of the same source.
In test [3] the target is human neuronal calcium channel subunits α1B-1β1-2 (human).
For test [4], the target named is human neuronal calcium channel subunits α1B-1β1-3 (human).
For test [5], the target named is human neuronal calcium channel α1B-1α2bβ1-2 (human).
In test [6] the target is human neuronal calcium channel α1B-1α2bβ1-3 (human).
For test [7], the target named is human neuronal calcium channel α1B-2α2bβ1-2 (human).
The target in test [8] is human neuronal calcium channel subunits α1B-1β1-2 (human). Description: saturation binding of 125I-ω-CgTx GVIA to transiently transfected HEK293 cells.
Test [9] has as its target human neuronal calcium channel subunits α1B-1β1-3 (human). Described as above.
The target of test [10] is human neuronal calcium channel subunits α1B-2β1-2 (human). The description is as above.
In test [11] the target is human neuronal calcium channel subunits α1B-2β1-3 (human). The test is described as above.
For test [12], the target named is human neuronal calcium channel α1B-1α2bβ1-2 (human). Described as above.
For test [13], the target named is human neuronal calcium channel α1B-1α2bβ1-3 (human). The test is described as above.
Test [14] addresses human neuronal calcium channel α1B-2α2bβ1-2 (human). Described as above.
In test [15] the target is human neuronal calcium channel α1E-3α2bβ1-3 (human). Description: cell-based or functional assay.

For “125I-ω-CgTx GVIA (from UniProt P01522 46-72) (peptide)”, the Bmax (sites/cell) in test [1] was found to be 2260 sites/cell; in test [8], 5760 sites/cell; in test [9] it was 8730 sites/cell; in test [10] it was 2130 sites/cell; in test [11], 2940 sites/cell; in test [12] it was 45300 sites/cell. Besides, the Bmax (sites/cell) in [13] worked out at 91000 sites/cell; in test [14] it was 19400 sites/cell. For the same substance, the dissociation constant Kd in test [1] was 0.0846 nM; in test [8], 0.0179 nM; in [9] it was 0.0179 nM; in [10], 0.0164 nM; in test [11], 0.0222 nM; in [12] it was 0.0549 nM. The Kd came to 0.0532 nM in test [13] and 0.053 nM in test [14]. In addition, the fold increase of binding capacity against α1B-1 alone in test [2] came to 3 fold. In addition, the values for the fold increase of surface binding against α1B-1 alone in test [3] and in test [4] were 8 fold and 10 fold, respectively. In [5], the fold binding sites per cell against α1B-2α2bβ1-2 is 2.5 fold. The fold surface receptor density against α1B-1β1-2 in test [5] amounted to 8 fold. In test [6], the fold binding capacity against α1B-1α2bβ1-2 was 2 fold. Besides, the fold binding sites per cell against α1B-2α2bβ1-3 in test [6] was 2.5 fold. Further, in test [6], the fold surface receptor density against α1B-1β1-3 turned out to be 10 fold. Moreover, the fold surface receptor density against α1B-2β1-2 in test [7] was determined as 9 fold.

Regarding “ω-Aga-IVa (from UniProt P30288 1-48) (peptide)”, the block of barium current (whole-cell patch clamp, HEK 293 cells) (% block at 10 nM) in [15] amounted to 73.
